To fix the notation:
B1: E27 anti-IgE antibody, wild type (humanized IgG1) (antibody)
heavy: not shown
light: DIQLTQSPSSLSASVGDRVTITCRASKPVDGEGDSYMNWYQQKPGKAPKLLIYAASYLESGVPSRFSGSGSGTDFTLTISSLQPEDFATYYCQQSHEDPYTFGQGTKVEIKRTVAAPSVFIFPPSDEQLKSGTASVVCLLNNFYPREAKVQWKVDNALQSGNSQESVTEQDSKDSTYSLSSTLTLSKADYEKHKVYACEVTHQGLSSPVTKSFNRGEC
notes: In the FcγRII and FcγRIII ELISAs it stood as an immune complex E27:chimeric IgE:VEGF (1:1:2); also called wt; recombinant anti-IgE E27
B2: E27 anti-IgE antibody mutant E318A (antibody)
heavy: not shown
light: B1 light
notes: also called E318A (E27 background)
B3: E27 anti-IgE antibody mutant P331A (antibody)
heavy: not shown
light: B1 light
notes: also called P331A (E27 background)
B4: E27 anti-IgE antibody mutant P329A (antibody)
heavy: not shown
light: B1 light
notes: also called P329A (E27 background)
B5: E27 anti-IgE antibody mutant K322A (antibody)
heavy: not shown
light: B1 light
notes: also called K322A (E27 background)
B6: E27 anti-IgE antibody mutant K320A (antibody)
heavy: not shown
light: B1 light
notes: also called K320A (E27 background)

The target in one experiment is T1, FcγRI α subunit-GST fusion (UniProt P12314 16-292).
T1 construct: not shown: glutathione S transferase (GST)
T1 sequence (P12314 other isoform, or with tags, fused parts or gaps, form in doubt): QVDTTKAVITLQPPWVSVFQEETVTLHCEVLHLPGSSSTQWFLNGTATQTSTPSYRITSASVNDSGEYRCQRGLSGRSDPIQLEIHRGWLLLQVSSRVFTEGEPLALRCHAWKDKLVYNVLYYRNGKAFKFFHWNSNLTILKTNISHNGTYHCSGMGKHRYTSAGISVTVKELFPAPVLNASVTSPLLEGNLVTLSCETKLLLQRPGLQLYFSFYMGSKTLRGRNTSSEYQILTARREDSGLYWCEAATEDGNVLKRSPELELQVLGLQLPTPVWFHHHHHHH
The experiment can be described thus: ELISA, monomeric IgG on coated FcγRI α subunit-GST.
Consider B1, for which the “binding as percentage of the wild type” value worked out at 100%.

Regarding B2, the “binding as percentage of the wild type” value is 93%.

For B3, the “binding as percentage of the wild type” value turned out to be 74%.

As for B4, the “binding as percentage of the wild type” value was 104%.

Turning to B5, the “binding as percentage of the wild type” value amounted to 90%.

Turning to B6, the “binding as percentage of the wild type” value was 102%.

The target in the next experiment is T2, FcγRIIIa α subunit ECD-6His-GST fusion protein (UniProt P08637 17-208).
T2 construct: not shown: glutathione S transferase (GST)
T2 sequence (P08637 other isoform, or with tags, fused parts or gaps, form in doubt): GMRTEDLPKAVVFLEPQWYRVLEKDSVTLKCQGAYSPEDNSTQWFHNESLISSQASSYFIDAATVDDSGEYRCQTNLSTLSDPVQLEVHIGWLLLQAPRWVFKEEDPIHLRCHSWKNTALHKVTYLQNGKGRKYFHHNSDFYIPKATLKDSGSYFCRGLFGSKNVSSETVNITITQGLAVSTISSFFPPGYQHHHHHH
The experiment can be described thus: ELISA, E27:chimeric IgE:VEGF immune complex on coated receptor ECD-6His-GST.
With B1, the “binding as percentage of the wild type” value stood at 100%.

Take B2: the “binding as percentage of the wild type” value was determined as 104%.

Regarding B3, the “binding as percentage of the wild type” value was found to be 73%.

For the molecule B4, the “binding as percentage of the wild type” value came to 85%.

Consider B5, for which the “binding as percentage of the wild type” value stood at 90%.

With B6, the “binding as percentage of the wild type” value worked out at 72%.

In a further experiment the target is T3, FcγRIIa α subunit ECD-6His-GST fusion protein (UniProt P12318 34-217).
T3 construct: not shown: glutathione S transferase (GST)
T3 sequence: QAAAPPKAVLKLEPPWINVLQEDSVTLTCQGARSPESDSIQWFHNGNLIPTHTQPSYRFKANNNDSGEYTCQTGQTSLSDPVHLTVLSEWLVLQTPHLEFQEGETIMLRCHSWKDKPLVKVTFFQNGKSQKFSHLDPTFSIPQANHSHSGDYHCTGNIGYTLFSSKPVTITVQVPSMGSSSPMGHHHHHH
The experiment is described as above.
Take B1: the “binding as percentage of the wild type” value came to 100%.

Turning to B2, the “binding as percentage of the wild type” value turned out to be 113%.

On to B3, for which the “binding as percentage of the wild type” value was determined as 86%.

With B4, the “binding as percentage of the wild type” value was 111%.

As for B5, the “binding as percentage of the wild type” value was 109%.

Regarding B6, the “binding as percentage of the wild type” value amounted to 94%.

The next experiment has as its target T4, FcγRIIb α subunit ECD-6His-GST fusion protein (UniProt P31994 43-217).
T4 construct: not shown: glutathione S transferase (GST)
T4 sequence: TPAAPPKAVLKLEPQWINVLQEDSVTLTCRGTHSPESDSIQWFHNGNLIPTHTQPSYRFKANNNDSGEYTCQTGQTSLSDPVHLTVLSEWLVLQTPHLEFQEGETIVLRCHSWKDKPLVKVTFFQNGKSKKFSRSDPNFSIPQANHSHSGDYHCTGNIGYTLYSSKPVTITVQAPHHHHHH
Described as above.
As to B1, the “binding as percentage of the wild type” value is 100%.

As for B2, the “binding as percentage of the wild type” value was found to be 106%.

B3: the “binding as percentage of the wild type” value came out at 58%.

With B4, the “binding as percentage of the wild type” value was found to be 96%.

B5: the “binding as percentage of the wild type” value is 101%.

B6: the “binding as percentage of the wild type” value turned out to be 83%.

Values taken from patent US20030158389A1 (Genentech, published 2003).
